Assay results: publication PMC9190012, “Heparin activation of protein Z-dependent protease inhibitor (ZPI) allosterically blocks protein Z activation through an extended heparin-binding site” (The Journal of Biological Chemistry, 2022)
Residue numbers refer to the chain shown, from its start. Names may count otherwise.

B1: R305A: ZPI helix H site mutant (protein, UniProt Q9UK55 22-444, looked up, variant R305A)
Protein Z-dependent protease …: LAPSPQSPETPAPQNQTSRVVQAPKEEEEDEQEASEEKASEEEKAWLMASRQQLAKETSNFGFSLLRKISMRHDGNMVFSPFGMSLAMTGLMLGATGPTETQIKRGLHLQALKPTKPGLLPSLFKGLRETLSRNLELGLTQGSFAFIHKDFDVKETFFNLSKRYFDTECVPMNFRNASQAKRLMNHYINKETRGKIPKLFDEINPETKLILVDYILFKGKWLTPFDPVFTEVDTFHLDKYKTIKVPMMYGAGKFASTFDKNFRCHVLKLPYQGNATMLVVLMEKMGDHLALEDYLTTDLVETWLANMKTRNMEVFFPKFKLDQKYEMHELLRQMGIRRIFSPFADLSELSATGRNLQVSRVLQRTVIEVDERGTEAVAGILSEITAYSMPPVIKVDRPFHFMIYEETSGMLLFLGRVVNPTLL
B2: K308A: ZPI helix H site mutant (protein, UniProt Q9UK55 22-444, looked up, variant K308A)
Protein Z-dependent protease …: B1 Protein Z-dependent protease … with A305R, K308A
B3: R310A: ZPI helix H site mutant (protein, UniProt Q9UK55 22-444, looked up, variant R310A)
Protein Z-dependent protease …: B1 Protein Z-dependent protease … with A305R, R310A
B4: K125A/R128A: ZPI mutant of helix D residues (protein, UniProt Q9UK55 22-444, looked up, variant K125A R128A)
Protein Z-dependent protease …: B1 Protein Z-dependent protease … with K125A, R128A, A305R
B5: K284A: ZPI helix H site mutant (protein, UniProt Q9UK55 22-444, looked up, variant K284A)
Protein Z-dependent protease …: B1 Protein Z-dependent protease … with K284A, A305R
B6: K284A/R310A: ZPI helix H site double mutant (protein, UniProt Q9UK55 22-444, looked up, variant K284A R310A)
Protein Z-dependent protease …: B1 Protein Z-dependent protease … with K284A, A305R, R310A
B7: K260A/R263A/R305A/K308A/R310A: ZPI helix H site quintuple mutant (protein, UniProt Q9UK55 22-444, looked up, variant K260A R263A R305A K308A R310A)
Protein Z-dependent protease …: B1 Protein Z-dependent protease … with K260A, R263A, K308A, R310A

molecular target: T1, FXa (Homo sapiens, UniProt P00742); experiment: H50 heparin-accelerated ZPI–FXa reactions: kinetics and stoichiometry of inhibition; type: biochemical; conditions: 1 μM H50
T1 construct: purchased Enzyme Research Laboratories
T1 sequence (P00742 235-488 limits assumed): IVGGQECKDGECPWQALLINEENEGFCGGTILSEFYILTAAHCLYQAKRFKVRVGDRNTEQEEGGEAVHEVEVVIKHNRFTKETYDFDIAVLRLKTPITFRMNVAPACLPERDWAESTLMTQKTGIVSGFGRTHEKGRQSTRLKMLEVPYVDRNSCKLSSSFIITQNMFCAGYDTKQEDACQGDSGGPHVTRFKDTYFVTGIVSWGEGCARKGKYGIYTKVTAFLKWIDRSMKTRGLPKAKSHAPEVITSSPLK
T1 sequence (P00742 41-179 limits assumed): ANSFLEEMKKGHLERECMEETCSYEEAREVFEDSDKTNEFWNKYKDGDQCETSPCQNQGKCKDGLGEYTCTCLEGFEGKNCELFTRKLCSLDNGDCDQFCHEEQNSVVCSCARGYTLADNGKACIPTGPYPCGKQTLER
Description: Heparin accelerating effects on the kinetics of ZPI–FXa reactions were evaluated as a function of heparin concentration under pseudo–first-order conditions (i.e., with a large molar excess of inhibitor over protease) by incubating reaction mixtures of 100 μl containing 70 nM ZPI and ∼0.5 nM FXa in the absence or presence of varying levels of H50 ranging from 10^−9 to 10^−4 M in 20 mM Tris buffer (pH 7.4), 0.1 M NaCl, 0.1% PEG 8000, 0.1 mg/ml BSA, and 2.5 mM CaCl2 at 25 °C for reaction times of 2 to 5 min. Reactions were quenched by adding 1 ml of 50 μM Pefafluor FXa substrate (Centerchem, Inc) containing 50 μg/ml polybrene and 5 mM EDTA. The initial linear rate of substrate hydrolysis was monitored at an excitation wavelength of 380 nm and an emission wavelength of 440 nm. The observed pseudo–first-order rate constant for reactions (kobs) was calculated from the equation, kobs=In([vo-v∞]/[vt-v∞])/t
where vt and v∞ are the initial velocities of protease hydrolysis of the substrate after reaction with ZPI for the fixed reaction time and after reaching the reaction end point, respectively, vo is the velocity measured in control reactions without ZPI, and t is the fixed reaction time. The dependence of kobs on heparin concentration was computer fit by nonlinear least squares analysis by the ternary complex bridging model equation ([10]).
(§1) Apparent second-order rate constants for unaccelerated and H50-accelerated ZPI–FXa reactions were measured in the absence and presence of the optimal H50 concentration under pseudo–first-order conditions by analyzing full ZPI–FXa reaction progress curves over the ZPI concentration range of 10 to 900 nM with ∼0.5 nM FXa. Full reaction progress curves were also measured for ZPI–FXa reactions in the presence of PZ equimolar with ZPI, 25 μM lipid, and 5 mM CaCl2, as a function of the ZPI concentration in the range of 10 to 40 nM. Identical reaction mixtures were quenched at varying reaction times with substrate, and the time course of protease inactivation was measured from the decrease in initial rates of substrate hydrolysis. The first-order rate of decrease in protease activity with time was computer fit by a single exponential decay function with a nonzero end point and kobs obtained from the fitted exponential decay constant. Apparent second-order association rate constants (ka,app) were obtained from the slopes of linear plots of kobs versus the ZPI concentration according to the equation, kobs=kd+ka,app × [ZPI]0
(§2) In which kd represents the rate constant for ZPI–FXa complex dissociation and [ZPI]o is the total ZPI concentration. kd was fixed at the experimentally determined value of 10^−4 s^−1 for WT and ZPI mutants as described ([18]).
Fixed concentrations of FXa (50–100 nM FXa) were reacted with increasing concentrations of ZPI, ranging from a approximately threefold to sevenfold molar excess, in the absence of cofactors or in the presence of either 1 μM H50 or PZ equimolar with ZPI, 25 μM lipid, and 5 mM CaCl2, in kinetics buffer at 25 °C in reaction volumes of 50 μl. After allowing sufficient time to reach a reaction end point, based on measured second-order associate rate constants (∼5–30 min), remaining proteolytic activity was measured by reacting an aliquot (5–20 μl) of the reaction mixtures with 1 ml of 100 μM Spectrozyme fXa (American Diagnostica) containing 50 μg/ml Polybrene and 5 mM EDTA and monitoring the rate of absorbance change at 405 nm. The apparent SI was determined from the fitted abscissa intercept of a linear plot of residual protease activity against the molar ratio of inhibitor to protease ([18]). Because the ZPI–PZ complex dissociates to a small extent over the reaction time, apparent SIs depend on the time of incubation. To correct for such complex dissociation, apparent SIs were multiplied by the factor, exp (−kd × t), where kd is the measured complex dissociation rate constant of 10^−4 s^−1 and t the fixed reaction time. […]

Molecule | SI [moles ZPI/mole FXa] | ka,app × SI | ka,app × SI relative to WT
B1 | 1.8 ± 0.1 | 5.3 ± 0.9 × 10^5 M^−1 s^−1 | (0.44)
B2 | 2.2 ± 0.3 | 5.4 ± 0.9 × 10^5 M^−1 s^−1 | (0.45)
B3 | 1.9 ± 0.2 | 3.5 ± 0.5 × 10^5 M^−1 s^−1 | (0.29)
B4 | 4.9 ± 0.2 | 5.6 ± 0.8 × 10^5 M^−1 s^−1 | (0.47)
B5 | 2.4 ± 0.1 | 9.2 ± 0.9 × 10^5 M^−1 s^−1 | (0.77)
B6 | 1.9 ± 0.1 | 3.7 ± 0.4 × 10^5 M^−1 s^−1 | (0.31)
B7 | 2.9 ± 0.4 | 4.9 ± 0.7 × 10^4 M^−1 s^−1 | (0.04)

same assay, conditions: 1 μM H50, 2.5 mM CaCl2, pH 7.4, 25 °C

Molecule | ka,app
B1 | 2.9 ± 0.3 × 10^5 M^−1 s^−1
B2 | 2.4 ± 0.1 × 10^5 M^−1 s^−1
B3 | 1.8 ± 0.1 × 10^5 M^−1 s^−1
B4 | 1.2 ± 0.1 × 10^5 M^−1 s^−1
B5 | 3.9 ± 0.2 × 10^5 M^−1 s^−1
B6 | 2.0 ± 0.1 × 10^5 M^−1 s^−1
B7 | 1.7 ± 0.1 × 10^4 M^−1 s^−1

same assay, conditions: ratio of heparin-accelerated to unaccelerated ka,app × SI

Molecule | H50 rate enhancement [fold]
B1 | ~29
B2 | ~32
B3 | ~35
B4 | ~89
B6 | 59
B7 | 6.5

molecular target: T1, FXa; experiment: PZ-accelerated ZPI–FXa reactions: kinetics and stoichiometry of inhibition; type: biochemical; conditions: PZ-accelerated
Description: as §1, §2
(§3) Fixed concentrations of FXa (50–100 nM FXa) were reacted with increasing concentrations of ZPI, ranging from a approximately threefold to sevenfold molar excess, in the absence of cofactors or in the presence of either 1 μM H50 or PZ equimolar with ZPI, 25 μM lipid, and 5 mM CaCl2, in kinetics buffer at 25 °C in reaction volumes of 50 μl. After allowing sufficient time to reach a reaction end point, based on measured second-order associate rate constants (∼5–30 min), remaining proteolytic activity was measured by reacting an aliquot (5–20 μl) of the reaction mixtures with 1 ml of 100 μM Spectrozyme fXa (American Diagnostica) containing 50 μg/ml Polybrene and 5 mM EDTA and monitoring the rate of absorbance change at 405 nm. The apparent SI was determined from the fitted abscissa intercept of a linear plot of residual protease activity against the molar ratio of inhibitor to protease ([18]). Because the ZPI–PZ complex dissociates to a small extent over the reaction time, apparent SIs depend on the time of incubation. To correct for such complex dissociation, apparent SIs were multiplied by the factor, exp (−kd × t), where kd is the measured complex dissociation rate constant of 10^−4 s^−1 and t the fixed reaction time. Simulations verified the validity of this correction for small extents of dissociation. Reported SIs are average values of at least two independent measurements at different reaction times.

Molecule | SI [moles ZPI/mole FXa] | ka,app × SI | ka,app × SI relative to WT
B1 | 3.3 ± 0.1 | 3.2 ± 0.4 × 10^7 M^−1 s^−1 | (0.73)
B2 | 2.7 ± 0.1 | 2.6 ± 0.1 × 10^7 M^−1 s^−1 | (0.59)
B3 | 2.9 ± 0.2 | 2.7 ± 0.6 × 10^7 M^−1 s^−1 | (0.61)
B4 | 5.6 ± 0.1 | 2.9 ± 0.2 × 10^7 M^−1 s^−1 | (0.66)
B5 | 3.3 ± 0.1 | 2.0 ± 0.1 × 10^7 M^−1 s^−1 | (0.45)
B6 | 3.3 ± 0.1 | 2.1 ± 0.2 × 10^7 M^−1 s^−1 | (0.48)
B7 | 4.5 ± 0.2 | 1.8 ± 0.1 × 10^7 M^−1 s^−1 | (0.41)

same assay, conditions: equimolar PZ, 25 μM phospholipid, 5 mM CaCl2, pH 7.4, 25 °C

Molecule | ka,app
B1 | 9.8 ± 1.0 × 10^6 M^−1 s^−1
B2 | 9.5 ± 0.1 × 10^6 M^−1 s^−1
B3 | 9.4 ± 1.4 × 10^6 M^−1 s^−1
B4 | 5.2 ± 0.2 × 10^6 M^−1 s^−1
B5 | 6.2 ± 0.1 × 10^6 M^−1 s^−1
B6 | 6.4 ± 0.4 × 10^6 M^−1 s^−1
B7 | 3.9 ± 0.1 × 10^6 M^−1 s^−1

same assay, conditions: ratio of PZ-accelerated to unaccelerated ka,app × SI

Molecule | PZ enhancement
B1 | 1778
B2 | 1524
B3 | 2700
B4 | 4603
B5 | 1733
B6 | 3317
B7 | 2400

molecular target: T1, FXa; experiment: Unaccelerated ZPI–FXa reactions: kinetics and stoichiometry of inhibition; type: biochemical; conditions: not given
Description: as §1, §2, §3

Molecule | SI [moles ZPI/mole FXa] | ka,app × SI | ka,app × SI relative to WT
B1 | 2.4 ± 0.2 | 1.8 ± 0.2 × 10^4 M^−1 s^−1 | (1.1)
B2 | 2.9 ± 0.2 | 1.7 ± 0.1 × 10^4 M^−1 s^−1 | (1.1)
B3 | 2.7 ± 0.2 | 1.0 ± 0.2 × 10^4 M^−1 s^−1 | (0.62)
B4 | 1.7 ± 0.1 | 6.3 ± 0.3 × 10^3 M^−1 s^−1 | (0.39)
B5 | 2.3 ± 0.2 | 1.2 ± 0.2 × 10^4 M^−1 s^−1 | (0.75)
B6 | 1.9 ± 0.2 | 6.3 ± 1.3 × 10^3 M^−1 s^−1 | (0.39)
B7 | 2.9 ± 0.3 | 7.5 ± 0.9 × 10^3 M^−1 s^−1 | (0.47)

same assay, conditions: absence of PZ, 2.5 mM CaCl2, pH 7.4, 25 °C

Molecule | ka,app
B1 | 7.3 ± 0.4 × 10^3 M^−1 s^−1
B2 | 5.8 ± 0.1 × 10^3 M^−1 s^−1
B3 | 3.8 ± 0.3 × 10^3 M^−1 s^−1
B4 | 3.7 ± 0.1 × 10^3 M^−1 s^−1
B5 | 5.0 ± 0.3 × 10^3 M^−1 s^−1
B6 | 3.3 ± 0.3 × 10^3 M^−1 s^−1
B7 | 2.6 ± 0.1 × 10^3 M^−1 s^−1
